{"source": "paper PMC9944232", "key": {"AIFΔ101 WT": {"target": "AIFΔ101 WT (Homo sapiens, UniProt O95831 102-613)", "sequence (O95831 102-613, stated change not applied)": "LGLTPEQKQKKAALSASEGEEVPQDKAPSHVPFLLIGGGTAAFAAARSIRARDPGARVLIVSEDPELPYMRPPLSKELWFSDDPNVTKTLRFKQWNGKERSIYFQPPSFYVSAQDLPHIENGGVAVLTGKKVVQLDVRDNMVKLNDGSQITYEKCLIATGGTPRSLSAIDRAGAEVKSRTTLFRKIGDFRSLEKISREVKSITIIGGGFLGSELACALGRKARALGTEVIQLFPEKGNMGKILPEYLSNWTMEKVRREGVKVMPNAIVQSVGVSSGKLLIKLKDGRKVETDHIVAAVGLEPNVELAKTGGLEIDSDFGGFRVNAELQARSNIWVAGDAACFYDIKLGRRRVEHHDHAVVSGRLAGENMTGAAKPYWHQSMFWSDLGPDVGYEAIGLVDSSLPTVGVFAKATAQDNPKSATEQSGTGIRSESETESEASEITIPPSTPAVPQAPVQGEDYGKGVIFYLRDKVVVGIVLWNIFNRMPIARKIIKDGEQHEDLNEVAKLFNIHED", "assay": "ITC; binary, no added metal; 15 °C; ITC: 50 mM potassium phosphate pH 7.4, 15 °C (25 °C with CypA); EMSA: same buffer, 25 °C, 30 min, 2% agarose; AFM on mica at room temperature", "conditions": "protein: recombinant; tags: N-terminal His6; blunt"}, "AIFΔ101 WT;CypA": {"target": "AIFΔ101 WT;CypA (Homo sapiens;Homo sapiens, UniProt O95831;P62937 102-613;1-165, |)", "sequence (O95831 102-613, stated change not applied, chain 1 of 2)": "as the sequence (O95831 102-613, stated change not applied) above", "sequence (P62937 whole entry, stated change not applied, chain 2 of 2)": "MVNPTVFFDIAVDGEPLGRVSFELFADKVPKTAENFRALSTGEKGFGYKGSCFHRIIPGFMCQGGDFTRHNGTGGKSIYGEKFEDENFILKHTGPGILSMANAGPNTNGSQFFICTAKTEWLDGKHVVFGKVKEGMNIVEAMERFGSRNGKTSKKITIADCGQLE", "assay": "ITC; dsDNA titrated into AIF:CypA 1:1; negative cooperativity; ITC: 50 mM potassium phosphate pH 7.4, 15 °C (25 °C with CypA); EMSA: same buffer, 25 °C, 30 min, 2% agarose; AFM on mica at room temperature", "conditions": "protein: recombinant;recombinant; tags: N-terminal His6;N-terminal His6; copies: 1;1; blunt"}, "Histone H2AX": {"target": "Histone H2AX (Homo sapiens, UniProt P16104 1-143)", "assay": "ITC; binary; stronger than CypA; value in Table S4 not in material; ITC: 50 mM potassium phosphate pH 7.4, 15 °C (25 °C with CypA); EMSA: same buffer, 25 °C, 30 min, 2% agarose; AFM on mica at room temperature", "conditions": "protein: recombinant; tags: N-terminal His6 (PreScission site); blunt"}, "[1]": {"target": "AIFΔ101 WT;CypA;Histone H2AX (Homo sapiens;Homo sapiens;Homo sapiens, UniProt O95831;P62937;P16104 102-613;1-165;1-143, ||)", "sequence (O95831 102-613, stated change not applied, chain 1 of 3, other chains not shown)": "as the sequence (O95831 102-613, stated change not applied) above", "sequence (P62937 whole entry, stated change not applied, chain 2 of 3, other chains not shown)": "as the sequence (P62937 whole entry, stated change not applied, chain 2 of 2) above", "assay": "ITC; dsDNA titrated into AIF:CypA with varied H2AX; intrinsic Kd from cooperativity fit, alpha 9.7; ITC: 50 mM potassium phosphate pH 7.4, 15 °C (25 °C with CypA); EMSA: same buffer, 25 °C, 30 min, 2% agarose; AFM on mica at room temperature", "conditions": "protein: recombinant;recombinant;recombinant; tags: N-terminal His6;N-terminal His6;N-terminal His6 (PreScission site); copies: 1;1;1; blunt"}, "AIFΔ101 D489A/K518A": {"target": "AIFΔ101 D489A/K518A (Homo sapiens, UniProt O95831 102-613, D489A;K518A)", "sequence (O95831 102-613 D489A/K518A)": "as the sequence (O95831 102-613, stated change not applied) above, with D388A, K417A counted along it", "assay": "ITC; binary; ITC: 50 mM potassium phosphate pH 7.4, 15 °C (25 °C with CypA); EMSA: same buffer, 25 °C, 30 min, 2% agarose; AFM on mica at room temperature", "conditions": "protein: recombinant; tags: N-terminal His6; blunt"}, "AIFΔ101 K510A/K518A": {"target": "AIFΔ101 K510A/K518A (Homo sapiens, UniProt O95831 102-613, K510A;K518A)", "sequence (O95831 102-613 K510A/K518A)": "as the sequence (O95831 102-613, stated change not applied) above, with K409A, K417A counted along it", "assay": "ITC; binary; ITC: 50 mM potassium phosphate pH 7.4, 15 °C (25 °C with CypA); EMSA: same buffer, 25 °C, 30 min, 2% agarose; AFM on mica at room temperature", "conditions": "protein: recombinant; tags: N-terminal His6; blunt"}, "AIFΔ101 WT;Histone H2AX": {"target": "AIFΔ101 WT;Histone H2AX (Homo sapiens;Homo sapiens, UniProt O95831;P16104 102-613;1-143, |)", "sequence (O95831 102-613, stated change not applied, chain 1 of 2, other chains not shown)": "as the sequence (O95831 102-613, stated change not applied) above", "assay": "ITC; dsDNA titrated into AIF:H2AX 1:1; positive cooperativity; ITC: 50 mM potassium phosphate pH 7.4, 15 °C (25 °C with CypA); EMSA: same buffer, 25 °C, 30 min, 2% agarose; AFM on mica at room temperature", "conditions": "protein: recombinant;recombinant; tags: N-terminal His6;N-terminal His6 (PreScission site); copies: 1;1; blunt"}}}
{"binder": "15-bp dsDNA (dsDNA) DNA 1: GGTTAGTTATGCGCG DNA 2: CGCGCATAACTAACC", "values": [{"measurement": "Kd", "setting": "AIFΔ101 WT", "result": 2900, "unit": "nM"}, {"measurement": "binding result", "setting": "AIFΔ101 WT;CypA", "result": "binds"}, {"measurement": "binding result", "setting": "Histone H2AX", "result": "binds"}, {"measurement": "Kd", "setting": "[1]", "result": 9.1, "unit": "µM"}, {"measurement": "Kd", "setting": "AIFΔ101 D489A/K518A", "result": 500, "unit": "nM"}, {"measurement": "Kd", "setting": "AIFΔ101 K510A/K518A", "result": 500, "unit": "nM"}, {"measurement": "binding result", "setting": "AIFΔ101 WT;Histone H2AX", "result": "binds"}]}
